Source: patent publication US20180134756A1 (NATIONAL INSTITUTE OF ADVANCED INDUSTRIAL SCIENCE AND …, published 2018)

Target: T1, Aleuria Aurantia Lectin (AAL) (Aleuria aurantia, UniProt P18891 2-313)
T1 construct: Used as the probe in lectin blotting
T1 sequence (looked up): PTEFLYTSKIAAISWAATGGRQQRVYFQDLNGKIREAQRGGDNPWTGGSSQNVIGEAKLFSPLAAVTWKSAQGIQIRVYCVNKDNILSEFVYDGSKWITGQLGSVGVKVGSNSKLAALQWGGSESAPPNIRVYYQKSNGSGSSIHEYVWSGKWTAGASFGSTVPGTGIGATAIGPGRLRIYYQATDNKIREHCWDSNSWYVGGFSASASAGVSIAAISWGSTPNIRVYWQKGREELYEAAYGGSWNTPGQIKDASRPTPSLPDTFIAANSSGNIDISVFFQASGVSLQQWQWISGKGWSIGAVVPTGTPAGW
Assay: lectin blotting
Description: It was reported that the natural WFA (nWFA) has a sugar chain including fucose, and thus, the lectin blotting was performed using Aleuria Aurantia Lectin (AAL) recognizing fucose. As a result, it was confirmed that the nWFA was a glycoprotein including a sugar chain that reacted to AAL (FIGS. 5A and 5B).

binding result: binds
B1: natural Wisteria floribunda lectin (nWFA), purified, purchased from Vector Lab (other)
chain: KETTSFVFTRFSPDPQNLLLQGDTVVTSSGHLQLTQVKDGEPVYSSLGRALYYAPIHIWDSNTDTVANFVTSFSFVIDAPNKAKAADGLAFFLAPVDTEPQKPGGLLGLFHDDRHNKSNHIVAVEFDTFKNSWDPEGTHIGINVNSIVSRKTTSWDLENGEVANVVISYQASTKTLTASLVYPSSSTSYILNDVVDLKQILPEYVRVGFTAASGLSKDHVETHDVLAWTFDSDLPDPSSDDCN
modifications: one N-glycan (fucose-containing) expected at Asn146; disulfide bond between the two Cys272
notes: Lectin purified from seeds; Disulfide-linked dimer of about 60 KDa; also called natural WFA; nature-derived WFA
